Results on one substance are retold here after patent US20030013150A1.

Some results are limits rather than exact numbers.

The target in the assay is plasminogen. Description: cell-based or functional assay.

“Bacteriophages which harbored K2S on gpIII (K2S-?) (from UniProt P00750 209-562)” registered a fibrinogen-dependent enzymatic activity (amidolytic assay, plasminogen and S-2251) of under 0.25 IU/ml.
